Experimental data taken from publication PMC3140978, “The G1613A Mutation in the HBV Genome Affects HBeAg Expression and Viral Replication through Altered Core Promoter Activity”.

Columns and labels:
[1] = target: T1, RFX1 (Homo sapiens, UniProt P22670 1-979); test: EMSA; EMSA: 1x binding buffer from 10x (50 mM NaCl, 10 mM Tris-HCl pH 7.5, 2.5 mM MgCl2, 4% glycerol, 0.5 mM DTT), 0.05% NP40, poly(dI-dC), 20 ul, room temperature 1; settings: protein: ivt; tags: C-terminal myc in the source clone pCMV-RFX1; chain copies: 2; label: 32P end label (T4 kinase); blunt
T1 sequence: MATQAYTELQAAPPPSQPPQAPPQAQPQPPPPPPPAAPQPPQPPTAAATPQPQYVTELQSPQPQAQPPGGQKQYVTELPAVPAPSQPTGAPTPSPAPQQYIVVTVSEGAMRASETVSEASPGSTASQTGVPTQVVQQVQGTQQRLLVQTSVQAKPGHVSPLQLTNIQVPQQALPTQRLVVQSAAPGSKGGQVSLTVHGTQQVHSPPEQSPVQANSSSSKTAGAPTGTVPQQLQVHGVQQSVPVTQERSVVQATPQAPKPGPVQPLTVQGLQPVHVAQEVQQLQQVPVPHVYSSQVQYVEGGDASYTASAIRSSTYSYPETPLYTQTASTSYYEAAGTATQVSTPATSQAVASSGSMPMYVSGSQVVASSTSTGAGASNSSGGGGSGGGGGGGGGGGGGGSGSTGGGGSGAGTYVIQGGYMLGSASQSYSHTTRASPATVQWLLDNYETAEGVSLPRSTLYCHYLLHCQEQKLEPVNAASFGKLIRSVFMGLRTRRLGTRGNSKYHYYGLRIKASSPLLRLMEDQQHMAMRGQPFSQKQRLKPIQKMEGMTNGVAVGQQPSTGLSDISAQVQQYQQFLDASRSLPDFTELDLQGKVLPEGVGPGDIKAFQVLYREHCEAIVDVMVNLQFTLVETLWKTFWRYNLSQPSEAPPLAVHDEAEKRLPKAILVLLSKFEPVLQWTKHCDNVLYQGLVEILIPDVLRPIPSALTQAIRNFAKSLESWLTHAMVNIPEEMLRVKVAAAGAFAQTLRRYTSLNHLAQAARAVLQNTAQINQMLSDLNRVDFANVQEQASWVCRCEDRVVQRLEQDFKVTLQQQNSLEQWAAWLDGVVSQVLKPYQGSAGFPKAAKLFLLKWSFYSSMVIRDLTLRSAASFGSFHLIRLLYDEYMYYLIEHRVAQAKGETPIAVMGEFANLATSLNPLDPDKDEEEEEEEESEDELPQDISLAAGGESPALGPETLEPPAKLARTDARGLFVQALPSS

[2] = target: T1, RFX1; test: EMSA; shifted to C2 position; favored over wild-type; EMSA: 1x binding buffer from 10x (50 mM NaCl, 10 mM Tris-HCl pH 7.5, 2.5 mM MgCl2, 4% glycerol, 0.5 mM DTT), 0.05% NP40, poly(dI-dC), 20 ul, room temperature 1; settings: protein: ivt; tags: C-terminal myc in the source clone pCMV-RFX1; chain copies: 2; label: 32P end label (T4 kinase); blunt

B1: NS non-specific oligo (dsDNA)
DNA 1: GGAATTACGTGGCCACTCGAGGGAATTACG
DNA 2: CGTAATTCCCTCGAGTGGCCACGTAATTCC
- binding result [1]: no binding

B2: A1613 mutant NRE probe (dsDNA)
DNA 1: GCACGTCGCATGGAAACCACCGTGAACGCC
DNA 2: GGCGTTCACGGTGGTTTCCATGCGACGTGC
- binding result [2]: binds
